The source of these data is patent US20230322950A1 (Hoffmann-La Roche, published 2023).

Read-outs that look alike come from different tables or passages of the source.

The target in assay [1] is VH1VL1-CD8ATD-CD137CSD-CD3zSSD fusion. Briefly: cell-based or functional assay.
For assay [2], the target named is VH2VL1-CD8ATD-CD137CSD-CD3zSSD fusion. Briefly: cell-based or functional assay.
The target in assay [3] is VL1VH3-CD8ATD-CD137CSD-CD3zSSD fusion. Briefly: cell-based or functional assay.
Assay [4] deals with VH3VL1-CD8ATD-CD137CSD-CD3zSSD fusion. Briefly: cell-based or functional assay.
Assay [5] concerns the target T1, VH1VL1-CD8ATD-CD137CSD-CD3zSSD fusion.
T1 construct: Chimeric antigen receptor expressed on Jurkat NFAT reporter cells; also called VH1VL1 P329G-CAR
Briefly: Jurkat NFAT luciferase reporter assay with CD20-positive WSUDLCL2 target cells (5:1); no reporter activation, which the filing uses to exclude unspecific binding. In general terms: In a reporter assay the amount or activity of a reporter protein is the signal.
Method: (§1) Binding of the CAR to an immobilized adapter molecule (e.g. a tumor antigen bound adapter molecule) leads to CAR crosslinking resulting in T cell activation and in the expression of luciferase. […] The 384 well plate was centrifuged for 1 min at 300g and RT and incubated at 37° C. and 5% CO₂ in a humidity atmosphere. After 7h incubation 20% of the final volume of ONE-Glo™ Luciferase Assay (E6120, Promega) was added, and plates were centrifuged for 1 min at 350×g. Afterwards, the relative luminescence units (RLU) per s/well were measured immediately using a Tecan microplate reader. Concentration-response curves were fitted and EC₅₀ values were calculated using GraphPadPrism version 7. As p value the New England Journal of Medicine style was used as listed in GraphPadPrism 7. Meaning*=P≤0,033; **=P≤0,002; ***=P≤0.001.

For assay [6], the target named is T2, VH2VL1-CD8ATD-CD137CSD-CD3zSSD fusion.
T2 construct: Chimeric antigen receptor expressed on Jurkat NFAT reporter cells; also called VH2VL1 P329G-CAR
T2 sequence (chain, as listed by the source): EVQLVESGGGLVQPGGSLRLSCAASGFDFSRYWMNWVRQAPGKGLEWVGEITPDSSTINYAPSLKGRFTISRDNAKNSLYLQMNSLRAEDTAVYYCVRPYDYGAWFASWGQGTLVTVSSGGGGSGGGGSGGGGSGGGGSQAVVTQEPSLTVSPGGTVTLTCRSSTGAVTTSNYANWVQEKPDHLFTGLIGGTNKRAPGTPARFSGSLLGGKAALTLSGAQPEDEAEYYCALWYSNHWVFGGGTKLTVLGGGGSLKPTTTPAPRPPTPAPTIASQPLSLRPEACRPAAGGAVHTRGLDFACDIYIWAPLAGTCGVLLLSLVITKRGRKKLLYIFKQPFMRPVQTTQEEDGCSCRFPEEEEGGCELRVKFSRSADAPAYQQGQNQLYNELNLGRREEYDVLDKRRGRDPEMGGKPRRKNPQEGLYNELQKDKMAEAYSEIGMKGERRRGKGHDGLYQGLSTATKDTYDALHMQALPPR
Described as above.
Method: as §1

The target in assay [7] is T3, VL1VH3-CD8ATD-CD137CSD-CD3zSSD fusion.
T3 construct: Chimeric antigen receptor with the scFv in VL-VH order, expressed on Jurkat NFAT reporter cells; also called VL1VH3 P329G-CAR
T3 sequence (chain, as listed by the source): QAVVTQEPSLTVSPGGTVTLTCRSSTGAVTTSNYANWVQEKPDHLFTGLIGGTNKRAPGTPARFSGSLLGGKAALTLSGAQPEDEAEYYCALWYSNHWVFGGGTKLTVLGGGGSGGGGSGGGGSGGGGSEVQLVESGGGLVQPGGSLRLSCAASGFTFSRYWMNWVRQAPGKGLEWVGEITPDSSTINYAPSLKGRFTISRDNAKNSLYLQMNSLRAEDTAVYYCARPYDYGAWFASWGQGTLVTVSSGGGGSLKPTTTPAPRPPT
The description is as above.
Method: as §1

Assay [8] deals with T4, VH3VL1-CD8ATD-CD137CSD-CD3zSSD fusion.
T4 construct: also called VH3VL1 P329G-CAR
T4 sequence (chain, as listed by the source): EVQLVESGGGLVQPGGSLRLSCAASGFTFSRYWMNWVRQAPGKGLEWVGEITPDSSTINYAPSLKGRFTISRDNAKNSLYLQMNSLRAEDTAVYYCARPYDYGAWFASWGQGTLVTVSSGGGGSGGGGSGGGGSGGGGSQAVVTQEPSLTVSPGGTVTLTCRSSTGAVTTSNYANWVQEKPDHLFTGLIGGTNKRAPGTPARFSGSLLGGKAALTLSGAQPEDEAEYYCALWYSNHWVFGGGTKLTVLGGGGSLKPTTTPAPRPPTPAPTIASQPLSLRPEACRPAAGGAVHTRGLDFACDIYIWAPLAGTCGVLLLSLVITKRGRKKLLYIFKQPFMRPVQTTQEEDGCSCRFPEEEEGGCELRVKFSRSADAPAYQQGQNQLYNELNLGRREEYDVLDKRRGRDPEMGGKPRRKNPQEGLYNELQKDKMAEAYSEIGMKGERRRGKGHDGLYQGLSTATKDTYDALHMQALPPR
Described as above.
Method: as §1

Assay [9] addresses T1, VH1VL1-CD8ATD-CD137CSD-CD3zSSD fusion. In words: cell-based or functional assay. The source holds these as a separate data set.
Assay [10] has as its target T2, VH2VL1-CD8ATD-CD137CSD-CD3zSSD fusion. In words: cell-based or functional assay. The source holds these as a separate data set.
For assay [11], the target named is T3, VL1VH3-CD8ATD-CD137CSD-CD3zSSD fusion. In words: cell-based or functional assay. The source holds these as a separate data set.
For assay [12], the target named is T4, VH3VL1-CD8ATD-CD137CSD-CD3zSSD fusion. In words: cell-based or functional assay. This is another data set of the same source.
Assay [13] addresses T1, VH1VL1-CD8ATD-CD137CSD-CD3zSSD fusion. In words: Jurkat NFAT luciferase reporter assay with CD20-positive WSUDLCL2 target cells (5:1); no reporter activation, which the filing uses to exclude unspecific binding. This is another data set of the same source.
Method: as §1
Assay [14] addresses T2, VH2VL1-CD8ATD-CD137CSD-CD3zSSD fusion. The assay is described as above. This is another data set of the same source.
Method: as §1
In assay [15] the target is T3, VL1VH3-CD8ATD-CD137CSD-CD3zSSD fusion. The assay is described as above. This is another data set of the same source.
Method: as §1
In assay [16] the target is T4, VH3VL1-CD8ATD-CD137CSD-CD3zSSD fusion. Described as above. This is another data set of the same source.
Method: as §1

T1 sequence (chain, as listed by the source): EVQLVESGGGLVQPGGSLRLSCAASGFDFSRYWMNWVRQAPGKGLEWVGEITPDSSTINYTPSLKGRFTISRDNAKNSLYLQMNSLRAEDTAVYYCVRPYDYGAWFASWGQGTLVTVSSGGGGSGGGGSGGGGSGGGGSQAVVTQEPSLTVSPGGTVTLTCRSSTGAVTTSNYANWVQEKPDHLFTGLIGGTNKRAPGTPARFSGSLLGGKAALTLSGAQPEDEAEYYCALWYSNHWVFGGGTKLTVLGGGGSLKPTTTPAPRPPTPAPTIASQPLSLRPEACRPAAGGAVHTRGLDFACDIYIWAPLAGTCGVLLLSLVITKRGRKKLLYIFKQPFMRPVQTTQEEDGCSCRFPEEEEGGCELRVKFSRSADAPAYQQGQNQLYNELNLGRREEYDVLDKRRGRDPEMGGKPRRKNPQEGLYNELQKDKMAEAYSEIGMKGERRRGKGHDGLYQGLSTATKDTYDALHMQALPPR

B1: anti-CD20 (GA101) wild type IgG1 (antibody)
heavy: not shown
light: DIVMTQTPLSLPVTPGEPASISCRSSKSLLHSNGITYLYWYLQKPGQSPQLLIYQMSNLVSGVPDRFSGSGSGTDFTLKISRVEAEDVGVYYCAQNLELPYTFGGGTKVEIKRTVAAPSVFIFPPSDEQLKSGTASVVCLLNNFYPREAKVQWKVDNALQSGNSQESVTEQDSKDSTYSLSSTLTLSKADYEKHKVYACEVTHQGLSSPVTKSFNRGEC
notes: also called GA101 Fc wildtyp
Regarding B1, the “EC50 printed in the drawn table (row 'VH1 x VL1') for the Jurkat NFAT reporter assay with WSUDLCL2 cells; it is a fit of a flat curve at background and no activation is seen” value in assay [1] was roughly 2.19 pM. The “EC50 printed in the drawn table (row 'VH2 x VL1') for the Jurkat NFAT reporter assay with WSUDLCL2 cells; it is a fit of a flat curve at background and no activation is seen” value in assay [2] amounted to 0.000119 pM. Further, the “EC50 printed in the drawn table (row 'VL1 x VH 3') for the Jurkat NFAT reporter assay with WSUDLCL2 cells; it is a fit of a flat curve at background and no activation is seen” value in assay [3] is roughly 78.3 pM. Further, the “EC50 printed in the drawn table (row 'VH3 x VL1') for the Jurkat NFAT reporter assay with WSUDLCL2 cells; it is a fit of a flat curve at background and no activation is seen” value in assay [4] is roughly 85 pM. Further, the binding result in assay [5], in [6], in assay [7] and in assay [8] was “no binding (tested: 67 nM)” throughout.

B2: anti-CD20 (GA101) LALA IgG1 (antibody)
heavy: not shown
light: DIVMTQTPLSLPVTPGEPASISCRSSKSLLHSNGITYLYWYLQKPGQSPQLLIYQMSNLVSGVPDRFSGSGSGTDFTLKISRVEAEDVGVYYCAQNLELPYTFGGGTKVEIKRTVAAPSVFIFPPSDEQLKSGTASVVCLLNNFYPREAKVQWKVDNALQSGNSQESVTEQDSKDSTYSLSSTLTLSKADYEKHKVYACEVTHQGLSSPVTKSFNRGEC
B2: the “EC50 printed in the drawn table (row 'VH1 x VL1') for the Jurkat NFAT reporter assay with WSUDLCL2 cells; it is a fit of a flat curve at background and no activation is seen” value in assay [9] is roughly 0.0485 pM. In assay [10], the “EC50 printed in the drawn table (row 'VH2 x VL1') for the Jurkat NFAT reporter assay with WSUDLCL2 cells; it is a fit of a flat curve at background and no activation is seen” value is roughly 0 nM. The “EC50 printed in the drawn table (row 'VL1 x VH 3') for the Jurkat NFAT reporter assay with WSUDLCL2 cells; it is a fit of a flat curve at background and no activation is seen” value in assay [11] is roughly 0.000234 pM. Besides, in assay [12], the “EC50 printed in the drawn table (row 'VH3 x VL1') for the Jurkat NFAT reporter assay with WSUDLCL2 cells; it is a fit of a flat curve at background and no activation is seen” value was roughly 1.61e+07 mM. Besides, the binding result in assay [13], in assay [14], in assay [15] and in assay [16] was “no binding (tested: 67 nM)” in each case.
